# From the Immune Epitope Database (IEDB)
# Legend:
# HLA-A*01:01 = test: IEDB peptide-MHC binding, purified MHC/competitive/fluorescence; filed as Kd, often an IC50 or EC50 that approximates it; ≥ and ≤ were set here for values at or beyond the usual limits of such assays
# HLA-A*03:01 [1] = test: as above
# HLA-A*26:01 [2] = test: as above
# HLA-B*35:01 = test: as above
# HLA-A*11:01 = test: IEDB peptide-MHC binding, purified MHC/direct/fluorescence; filed as Kd, often an IC50 or EC50 that approximates it; ≥ and ≤ were set here for values at or beyond the usual limits of such assays
# HLA-A*31:01 = test: IEDB peptide-MHC binding, purified MHC/competitive/fluorescence; filed as Kd, often an IC50 or EC50 that approximates it; ≥ and ≤ were set here for values at or beyond the usual limits of such assays
# HLA-A*69:01 [3] = test: IEDB peptide-MHC binding, purified MHC/direct/fluorescence; filed as Kd, often an IC50 or EC50 that approximates it; ≥ and ≤ were set here for values at or beyond the usual limits of such assays
# HLA-C*03:03 = test: as above; details: source organism: Campylobacter jejuni subsp. jejuni NCTC 11168 = ATCC 700819
# HLA-C*05:01 = test: as above; details: source organism: Campylobacter jejuni subsp. jejuni NCTC 11168 = ATCC 700819
# HLA-A*02:01 [4] = test: as above
# HLA-A*02:03 = test: as above
# HLA-A*02:12 [5] = test: as above
# HLA-A*02:16 = test: as above
# HLA-A*02:19 = test: as above
# HLA-A*26:01 [6] = test: as above
# HLA-A*68:02 [7] = test: as above; details: source organism: Vibrio parahaemolyticus AQ3810
# HLA-B*15:01 [8] = test: as above
# HLA-B*18:01 [9] = test: as above
# HLA-B*27:03 [10] = test: as above
# HLA-B*39:01 [11] = test: as above
# HLA-B*46:01 [12] = test: as above
# HLA-B*51:01 [13] = test: as above; details: source organism: Vibrio parahaemolyticus AQ3810
# HLA-B*57:01 [14] = test: as above
# HLA-B*15:01 [15] = test: IEDB peptide-MHC binding, purified MHC/competitive/fluorescence; filed as Kd, often an IC50 or EC50 that approximates it; ≥ and ≤ were set here for values at or beyond the usual limits of such assays
# HLA-B*27:05 = test: as above
# HLA-A*02:01 [16] = test: as above; details: source organism: Vibrio cholerae 2740-80
# HLA-A*02:11 [17] = test: as above; details: source organism: Vibrio cholerae 2740-80
# HLA-A*02:12 [18] = test: as above; details: source organism: Vibrio cholerae 2740-80
# HLA-A*24:03 [19] = test: as above; details: source organism: Vibrio cholerae 2740-80
# HLA-A*29:02 [20] = test: as above; details: source organism: Vibrio cholerae 2740-80
# HLA-A*68:02 [21] = test: as above; details: source organism: Vibrio cholerae 2740-80
# HLA-A*69:01 [22] = test: as above; details: source organism: Vibrio cholerae 2740-80
# HLA-B*15:17 [23] = test: as above; details: source organism: Vibrio cholerae 2740-80
# HLA-B*18:01 [24] = test: as above; details: source organism: Vibrio cholerae 2740-80
# HLA-B*27:03 [25] = test: as above; details: source organism: Vibrio cholerae 2740-80
# HLA-B*39:01 [26] = test: as above; details: source organism: Vibrio cholerae 2740-80
# HLA-B*46:01 [27] = test: as above; details: source organism: Vibrio cholerae 2740-80
# HLA-B*51:01 [28] = test: as above; details: source organism: Vibrio cholerae 2740-80
# HLA-B*57:01 [29] = test: as above; details: source organism: Vibrio cholerae 2740-80
# HLA-A*02:11 [30] = test: IEDB peptide-MHC binding, purified MHC/direct/fluorescence; filed as Kd, often an IC50 or EC50 that approximates it; ≥ and ≤ were set here for values at or beyond the usual limits of such assays; details: source organism: Brucella suis 1330
# HLA-A*03:01 [31] = test: as above
# HLA-A*24:03 [32] = test: as above; details: source organism: Brucella suis 1330
# HLA-A*29:02 [33] = test: as above; details: source organism: Brucella suis 1330
# HLA-B*15:17 [34] = test: as above; details: source organism: Brucella suis 1330
# [35] = source organism: Yersinia pestis Nepal516
# [36] = source organism: Powassan virus
# [37] = source organism: Vibrio parahaemolyticus AQ3810
# [38] = source organism: Salmonella enterica subsp. enterica serovar Typhi
# [39] = source organism: Vibrio cholerae 2740-80
# [40] = source organism: Brucella suis 1330
# [41] = source organism: Escherichia coli O157:H7
sequence,measurement,setting,value
FVMSCKLLY,Kd,HLA-A*01:01; [35],0.7 µM
same,Kd,HLA-A*03:01 [1]; [35],1.85 µM
same,Kd,HLA-A*26:01 [2]; [35],0.327 µM
same,Kd,HLA-B*35:01; [35],0.0035 µM
KLKLKGTTY,Kd,HLA-A*11:01; [36],≥ 20 µM
same,Kd,HLA-A*03:01 [1]; [36],0.0684 µM
same,Kd,HLA-A*31:01; [36],2.15 µM
LLDEPTNHL,Kd,HLA-A*69:01 [3]; source organism: Bacillus anthracis,0.105 µM
same,Kd,HLA-C*03:03,2.91 µM
same,Kd,HLA-C*05:01,0.008 µM
RLDKPLWLH,Kd,HLA-A*02:01 [4]; [37],≥ 20 µM
same,Kd,HLA-A*02:03; [37],≥ 20 µM
same,Kd,HLA-A*02:12 [5]; [37],≥ 20 µM
same,Kd,HLA-A*02:16; [37],≥ 20 µM
same,Kd,HLA-A*02:19; [37],≥ 20 µM
same,Kd,HLA-A*26:01 [6]; [37],≥ 20 µM
same,Kd,HLA-A*68:02 [7],≥ 20 µM
same,Kd,HLA-A*69:01 [3]; [37],≥ 20 µM
same,Kd,HLA-B*15:01 [8]; [37],≥ 20 µM
same,Kd,HLA-B*18:01 [9]; [37],≥ 20 µM
same,Kd,HLA-B*27:03 [10]; [37],≥ 20 µM
same,Kd,HLA-B*39:01 [11]; [37],≥ 20 µM
same,Kd,HLA-B*46:01 [12]; [37],≥ 20 µM
same,Kd,HLA-B*51:01 [13],≥ 20 µM
same,Kd,HLA-B*57:01 [14]; [37],≥ 20 µM
ISANANFSY,Kd,HLA-A*01:01; [38],0.0288 µM
same,Kd,HLA-A*03:01 [1]; [38],≥ 20 µM
same,Kd,HLA-B*15:01 [15]; [38],0.21 µM
same,Kd,HLA-B*35:01; [38],0.0247 µM
VMYNLWKMK,Kd,HLA-A*11:01; source organism: Yellow fever virus 17D,0.0063 µM
same,Kd,HLA-A*31:01; source organism: Yellow fever virus,0.00567 µM
FRAQTKGKV,Kd,HLA-B*27:05; source organism: Escherichia coli 536,0.0867 µM
VQPWLMVDV,Kd,HLA-A*02:01 [16],≥ 20 µM
same,Kd,HLA-A*02:11 [17],0.119 µM
same,Kd,HLA-A*02:12 [18],1.17 µM
same,Kd,HLA-A*03:01 [1]; [39],≥ 20 µM
same,Kd,HLA-A*24:03 [19],≥ 20 µM
same,Kd,HLA-A*26:01 [2]; [39],≥ 20 µM
same,Kd,HLA-A*29:02 [20],≥ 20 µM
same,Kd,HLA-A*68:02 [21],≥ 20 µM
same,Kd,HLA-A*69:01 [22],≥ 20 µM
same,Kd,HLA-B*15:01 [15]; [39],≥ 20 µM
same,Kd,HLA-B*15:17 [23],≥ 20 µM
same,Kd,HLA-B*18:01 [24],≥ 20 µM
same,Kd,HLA-B*27:03 [25],≥ 20 µM
same,Kd,HLA-B*39:01 [26],≥ 20 µM
same,Kd,HLA-B*46:01 [27],≥ 20 µM
same,Kd,HLA-B*51:01 [28],≥ 20 µM
same,Kd,HLA-B*57:01 [29],≥ 20 µM
GKLKYRASY,Kd,HLA-B*27:05; source organism: Campylobacter jejuni subsp. jejuni NCTC 11168 = ATCC 700819,4.41 µM
QAHMGIAGL,Kd,HLA-A*02:01 [4]; [40],≥ 20 µM
same,Kd,HLA-A*02:03; [40],≥ 20 µM
same,Kd,HLA-A*02:11 [30],≥ 20 µM
same,Kd,HLA-A*02:12 [5]; [40],≥ 20 µM
same,Kd,HLA-A*02:16; [40],≥ 20 µM
same,Kd,HLA-A*02:19; [40],≥ 20 µM
same,Kd,HLA-A*03:01 [31]; [40],≥ 20 µM
same,Kd,HLA-A*24:03 [32],≥ 20 µM
same,Kd,HLA-A*26:01 [6]; [40],≥ 20 µM
same,Kd,HLA-A*29:02 [33],≥ 20 µM
same,Kd,HLA-B*15:01 [8]; [40],≥ 20 µM
same,Kd,HLA-B*15:17 [34],0.003 µM
same,Kd,HLA-B*18:01 [9]; [40],≥ 20 µM
same,Kd,HLA-B*27:03 [10]; [40],≥ 20 µM
same,Kd,HLA-B*39:01 [11]; [40],≥ 20 µM
same,Kd,HLA-B*46:01 [12]; [40],≥ 20 µM
same,Kd,HLA-B*57:01 [14]; [40],≥ 20 µM
MIYMGLWLK,Kd,HLA-A*03:01 [31]; [41],0.119 µM
same,Kd,HLA-A*11:01; [41],0.0047 µM
same,Kd,HLA-A*31:01; source organism: Escherichia coli O157:H7 str. Sakai,0.139 µM
TRALVRTGM,Kd,HLA-B*27:05; source organism: Influenza A virus (A/swine/Italy/1509-6/97(H1N1)),0.0083 µM
KRIGASLAH,Kd,HLA-B*27:05; source organism: Mycobacterium tuberculosis H37Rv,0.171 µM
